Data on 64 molecules can be found in patent US20170037110A1 (IMMATICS BIOTECHNOLOGIES, published 2017).

For assay [1], the target named is T1, HLA-A*02:01 (human).
T1 construct: monomers captured on streptavidin plates; also called MHC class I
Nature of the assay: UV peptide exchange ELISA. Put shortly:
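Read-out is an ELISA on the UV-exchange reaction: monomers, diluted 100-fold, are captured on streptavidin and the β2m light chain is detected with 2 μg/ml HRP antibody and TMB at 450 nm.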
On the technique in general: In an ELISA, binding on a coated surface is turned into a signal by an enzyme label.

Assay [2] deals with T2, HLA-A*02:01 (human).
T2 construct: Construct limits and biotin tag are not described
Kind of assay: pMHC complex coated on artificial APCs and used as fluorescent multimer A*02/SeqID No 663.

Assay [3] concerns the target T2, HLA-A*02:01. Nature of the assay: pMHC complex coated on artificial APCs and used as fluorescent multimer A*02/SeqID No 662.

B1: RLLPPGAVVAV (peptide)
peptide: RLLPPGAVVAV
Molecule B1 yielded a peptide exchange yield with HLA-A*02:01 [1] of 50 to 75%.

B2: VTFGEKLLGV (peptide)
peptide: VTFGEKLLGV
Consider B2, for which the peptide exchange yield with HLA-A*02:01 [1] was 20 to 50%.

B3: RLYSGISGLEL (peptide)
peptide: RLYSGISGLEL
B3: the peptide exchange yield with HLA-A*02:01 [1] was 50 to 75%.

B4: YLIPFTGIVGL (peptide)
peptide: YLIPFTGIVGL
As for B4, in the assay with HLA-A*02:01 [1], the peptide exchange yield was in the range of 20 to 50%.

B5: RLLGEEVVRVLQA (peptide)
peptide: RLLGEEVVRVLQA
B5: in the assay with HLA-A*02:01 [1], the peptide exchange yield was in the range of 50 to 75%.

B6: SeqID No 663 peptide (KIQEMQHFL) (peptide)
peptide: KIQEMQHFL
notes: also called MMP12 peptide
With B6, in the assay with HLA-A*02:01 [2], the binding result is “binds”.

B7: YLYNEGLSV (peptide)
peptide: YLYNEGLSV
With B7, the peptide exchange yield in the assay with HLA-A*02:01 [1] lay within 50 to 75%.

B8: NIFDLQIYV (peptide)
peptide: NIFDLQIYV
Take B8: the peptide exchange yield with HLA-A*02:01 [1] lay in the range of 50 to 75%.

B9: YLLPSGGSVTL (peptide)
peptide: YLLPSGGSVTL
B9 yielded a peptide exchange yield with HLA-A*02:01 [1] of 20 to 50%.

B10: TLAELQPPVQL (peptide)
peptide: TLAELQPPVQL
Regarding B10, the peptide exchange yield with HLA-A*02:01 [1] fell in the range of 50 to 75%.

B11: ALWETEVYI (peptide)
peptide: ALWETEVYI
Regarding B11, the peptide exchange yield with HLA-A*02:01 [1] was in the range of 50 to 75%.

B12: FLLVGDLMAV (peptide)
peptide: FLLVGDLMAV
For the molecule B12, the peptide exchange yield with HLA-A*02:01 [1] fell in the range of 50 to 75%.

B13: NLIGKIENV (peptide)
peptide: NLIGKIENV
In the assay with HLA-A*02:01 [1], B13 showed a peptide exchange yield of 50 to 75%.

B14: YAAPGGLIGV (peptide)
peptide: YAAPGGLIGV
In the assay with HLA-A*02:01 [1], B14 returned a peptide exchange yield of 20 to 50%.

B15: FLFSQLQYL (peptide)
peptide: FLFSQLQYL
B15: the peptide exchange yield with HLA-A*02:01 [1] lay within 20 to 50%.

B16: SeqID No 662 peptide (KIQEILTQV) (peptide)
peptide: KIQEILTQV
notes: also called IGF2BP3 peptide
Take B16: the binding result in the assay with HLA-A*02:01 [3] was “binds”.

B17: SLFSSLEPQIQPV (peptide)
peptide: SLFSSLEPQIQPV
B17 yielded a peptide exchange yield with HLA-A*02:01 [1] of 50 to 75%.

B18: VLPPDTDPA (peptide)
peptide: VLPPDTDPA
Turning to B18, the peptide exchange yield with HLA-A*02:01 [1] lay within 20 to 50%.

B19: ALMYESEKVGV (peptide)
peptide: ALMYESEKVGV
In the assay with HLA-A*02:01 [1], B19 yielded a peptide exchange yield of 50 to 75%.

B20: ALLDPEVLSIFV (peptide)
peptide: ALLDPEVLSIFV
For B20, in the assay with HLA-A*02:01 [1], the peptide exchange yield was in the range of 50 to 75%.

B21: KLYEGIPVLL (peptide)
peptide: KLYEGIPVLL
The molecule B21 came in with a peptide exchange yield with HLA-A*02:01 [1] of no less than 75%.

B22: ILVEADGAWVV (peptide)
peptide: ILVEADGAWVV
As to B22, the peptide exchange yield in the assay with HLA-A*02:01 [1] is no less than 75%.

B23: IMQDFPAEIFL (peptide)
peptide: IMQDFPAEIFL
In the assay with HLA-A*02:01 [1], B23 showed a peptide exchange yield of no less than 75%.

B24: ALWKQLLEL (peptide)
peptide: ALWKQLLEL
For B24, the peptide exchange yield in the assay with HLA-A*02:01 [1] is 50 to 75%.

B25: FLYDNLVESL (peptide)
peptide: FLYDNLVESL
The molecule B25 came in with a peptide exchange yield with HLA-A*02:01 [1] of 20 to 50%.

B26: GLLEVMVNL (peptide)
peptide: GLLEVMVNL
B26 had a peptide exchange yield in the assay with HLA-A*02:01 [1] of 50 to 75%.

B27: FLSSVTYNL (peptide)
peptide: FLSSVTYNL
For the molecule B27, the peptide exchange yield in the assay with HLA-A*02:01 [1] fell in the range of 50 to 75%.

B28: KLYEAVPQL (peptide)
peptide: KLYEAVPQL
Molecule B28 gave a peptide exchange yield in the assay with HLA-A*02:01 [1] of 50 to 75%.

B29: FLQGYQLHL (peptide)
peptide: FLQGYQLHL
Consider B29, for which the peptide exchange yield with HLA-A*02:01 [1] is no less than 75%.

B30: KMSELRVTL (peptide)
peptide: KMSELRVTL
Consider B30, for which the peptide exchange yield with HLA-A*02:01 [1] lay within 50 to 75%.

B31: FLDENIGGVAV (peptide)
peptide: FLDENIGGVAV
B31 came in with a peptide exchange yield with HLA-A*02:01 [1] of 50 to 75%.

B32: ILIDSIYKV (peptide)
peptide: ILIDSIYKV
The molecule B32 displayed a peptide exchange yield with HLA-A*02:01 [1] of 50 to 75%.

B33: SLMELPRGLFL (peptide)
peptide: SLMELPRGLFL
For B33, the peptide exchange yield with HLA-A*02:01 [1] is no less than 75%.

B34: SLLELDGINL (peptide)
peptide: SLLELDGINL
As for B34, the peptide exchange yield in the assay with HLA-A*02:01 [1] was 50 to 75%.

B35: TLLAEALVTV (peptide)
peptide: TLLAEALVTV
In turn, B35 yielded a peptide exchange yield with HLA-A*02:01 [1] of 50 to 75%.

B36: YLLDDGTLVV (peptide)
peptide: YLLDDGTLVV
Regarding B36, the peptide exchange yield with HLA-A*02:01 [1] is no less than 75%.

B37: LLLPDQPPYHL (peptide)
peptide: LLLPDQPPYHL
As for B37, the peptide exchange yield with HLA-A*02:01 [1] lay within 50 to 75%.

B38: KLLNKIYEA (peptide)
peptide: KLLNKIYEA
For B38, the peptide exchange yield in the assay with HLA-A*02:01 [1] was no less than 75%.

B39: IMEDIILTL (peptide)
peptide: IMEDIILTL
B39 displayed a peptide exchange yield in the assay with HLA-A*02:01 [1] of 50 to 75%.

B40: SLDSTLHAV (peptide)
peptide: SLDSTLHAV
For B40, in the assay with HLA-A*02:01 [1], the peptide exchange yield was 50 to 75%.

B41: SLFIGEKAVLL (peptide)
peptide: SLFIGEKAVLL
As to B41, the peptide exchange yield with HLA-A*02:01 [1] lay within 50 to 75%.

B42: GILARIASV (peptide)
peptide: GILARIASV
In the assay with HLA-A*02:01 [1], B42 came in with a peptide exchange yield of 50 to 75%.

B43: ALPEAPAPLLPHIT (peptide)
peptide: ALPEAPAPLLPHIT
In the assay with HLA-A*02:01 [1], B43 yielded a peptide exchange yield of 20 to 50%.

B44: VLMDRLPSLL (peptide)
peptide: VLMDRLPSLL
Take B44: the peptide exchange yield with HLA-A*02:01 [1] was no less than 75%.

B45: LLAPTPYIIGV (peptide)
peptide: LLAPTPYIIGV
Take B45: the peptide exchange yield with HLA-A*02:01 [1] was in the range of 50 to 75%.

B46: YILPTETIYV (peptide)
peptide: YILPTETIYV
Consider B46, for which, in the assay with HLA-A*02:01 [1], the peptide exchange yield was no less than 75%.

B47: VLFDSESIGIYV (peptide)
peptide: VLFDSESIGIYV
B47 yielded a peptide exchange yield with HLA-A*02:01 [1] of 50 to 75%.

B48: SLLDLETLSL (peptide)
peptide: SLLDLETLSL
B48 showed a peptide exchange yield in the assay with HLA-A*02:01 [1] of no less than 75%.

B49: SILDRDDIFV (peptide)
peptide: SILDRDDIFV
Consider B49, for which, in the assay with HLA-A*02:01 [1], the peptide exchange yield fell in the range of 50 to 75%.

B50: ALQDRVPLA (peptide)
peptide: ALQDRVPLA
In the assay with HLA-A*02:01 [1], B50 returned a peptide exchange yield of 50 to 75%.

B51: FLLAHGLGFLL (peptide)
peptide: FLLAHGLGFLL
With B51, in the assay with HLA-A*02:01 [1], the peptide exchange yield is no less than 75%.

B52: SLLEQGKEPWMV (peptide)
peptide: SLLEQGKEPWMV
Molecule B52 returned a peptide exchange yield in the assay with HLA-A*02:01 [1] of 50 to 75%.

B53: GLLDYPVGV (peptide)
peptide: GLLDYPVGV
Regarding B53, the peptide exchange yield with HLA-A*02:01 [1] was in the range of 50 to 75%.

B54: SLLSVSHAL (peptide)
peptide: SLLSVSHAL
In the assay with HLA-A*02:01 [1], B54 registered a peptide exchange yield of 50 to 75%.

B55: FQLDPSSGVLVTV (peptide)
peptide: FQLDPSSGVLVTV
In turn, B55 returned a peptide exchange yield with HLA-A*02:01 [1] of 50 to 75%.

B56: ILAPTVMMI (peptide)
peptide: ILAPTVMMI
In the assay with HLA-A*02:01 [1], B56 returned a peptide exchange yield of 50 to 75%.

B57: YLPAVFEEV (peptide)
peptide: YLPAVFEEV
Take B57: the peptide exchange yield with HLA-A*02:01 [1] was in the range of 50 to 75%.

B58: KMIETDILQKV (peptide)
peptide: KMIETDILQKV
On to B58, for which the peptide exchange yield with HLA-A*02:01 [1] was no less than 75%.

B59: VLIDEVESL (peptide)
peptide: VLIDEVESL
In turn, B59 had a peptide exchange yield in the assay with HLA-A*02:01 [1] of 50 to 75%.

B60: VLLDVSAGQLLM (peptide)
peptide: VLLDVSAGQLLM
Turning to B60, the peptide exchange yield in the assay with HLA-A*02:01 [1] was no less than 75%.

B61: LLPDLEFYV (peptide)
peptide: LLPDLEFYV
On to B61, for which the peptide exchange yield with HLA-A*02:01 [1] was no less than 75%.

B62: SLSELEALM (peptide)
peptide: SLSELEALM
For B62, the peptide exchange yield with HLA-A*02:01 [1] was in the range of 50 to 75%.

B63: TLLQIIETV (peptide)
peptide: TLLQIIETV
In the case of B63, the peptide exchange yield with HLA-A*02:01 [1] lay in the range of 50 to 75%.

B64: YLVEDIQHI (peptide)
peptide: YLVEDIQHI
Consider B64, for which the peptide exchange yield with HLA-A*02:01 [1] lay within 50 to 75%.
